From the domain aggregation screens of Martell et al. (2025)

Experiment: soluble fraction after stress (log2 fold change); higher = more stays soluble; pooled small domains, quantitative proteomics
Conditions: stress: 50 degC
Procedure, shortened: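 The measure of aggregation propensity here is the base-two logarithm of the fold change in the soluble amount of each protein after stress. A higher value means more of that protein stays in solution. Stress was applied at 50°C to pooled libraries of small protein domains, read out by high-throughput quantitative proteomics.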

| Sequence | soluble fraction (log2) |
| --- | --- |
| HMLKNKSTGNINETKAILELALNHSHFKVFDNRDMTVTFKNLATQFTTMQRILVQMFFPLPAGVELIIE | ≥ 0.62 |
| HMALGRTGEVYLPIPAGRAGHGKISITLQGALREVDAVTAGEALPRGTSVRVVDVAGNGVLLVEK | -0.059 |
| HMVEELDVQFIKLTVQGDHPWKNKKIRELSIPWDLLFVLIIRGDKSIIPNGKTTIKDGDIVVVSAPEYRG | -0.676 |
| HMDSILMPGVVNKELREALAILKNEGIGWADPEYASSTVTRNYVISTDPVEGIELAPGQKVRLVVSLGPKP | -0.00706 |
| HMVDITPDLIRTLLERFGEYGVTKEHIEARIQRHIESILPAQVVQLRKTYNSLKDGMSQPSDWFDI | -1.26 |
| HMTSHPTHTILDGKVHVFMRDGSPFWWGGFHFKGKYLRTSTKQKNLDSAKTIAQQWYFQKQTEIASGE | -2.67 |
| HMKEEDLPREYTDILGNSVHERLNIMIHDIIEHSQDKPEVAMSPEREEAMHGLRRWMFDHVYH | -0.202 |
| HMKEADVRKNEILDAAGILFSEKGYDNTSVTDIMNAVGFAKGTLYHHFKSKEDIMDALIKRQTD | 0.219 |
| HMDDSSLFGRHTGIGFIVDDIDSGYQTLLAKGVSFEMPPTEQPWGGILALMKDPDGNIFYLD | -0.0639 |
| HMLLNPFERLTERELEIADLYAKGYGNLEIANFLSIKQNTVSTYKKRIFEKLGIDNLVELIELIKNY | 0.148 |
| HMQLTPAQHAILAHALEHSDGKIVWFPDNIKGGARKKVLDGLLNRALITTDGTDWFVAAEGYDAMGR | -0.227 |
| HMVQIVINKEVQTTSQTILRENAGTSSRNIGYVDPNVKLRATLDRNSFYFIPEKKGWIMKSRVKLIEDLS | -3.79 |
| HMDRVTYPVSFNGKVRFQLELDAGMNAKEVETAALGHEKTAAQIEGKTIRKVIVVPGRIINIVV | -0.259 |
| HMHGTIHSAAYGGDIEAVKKFLAAGADVNANGGGRTPLDLAIQVKNTEIADLLRKHGGKTGDELKA | 0.0271 |
| HMTANPSTEEIMARVEAIPLPIKRLPPGQIVQAQTVAATVLRSNPGLDLAKAWKLAYATVTGQE | -0.0416 |
| HMYTVRDGDTVFGILNRFGVSLDELLSLNPELSNGLKAGMVLKIK | -0.491 |
| HMDAQNLQDQLFGFLKANPTQAYPAQTLADGLRLDDANAFTKVVQALAALERGGKVKVNEEGAFQYDAEK | 0.0478 |
| HMLSDADLAAFREVFDLVDKDKSGAIEMEEVEELTKLLGLDLTRDEVELLVREIDKDGNGEVDFEEFLLVM | 0.0193 |
| HMNTIFSVNGPVVKVKDTKDFSMMEMVYVGEKKLIGEVIGITESFTTIQVYEVTTGLKVGEPVYTTGAPM | -0.38 |

| Sequence | soluble fraction (log2) |
| --- | --- |
| HMGQAELPYSEFLREVNNGQVKSVIIEGSEITGFYKTSGTSFNVIAPDDPKLVERLMAQGVEVRAQPA | 0.0327 |
| HMSRVSVDGEEVNFEGEIPDDPSRIYELLMGALSEQSRVVVKFFVDGKDALLDEGFPSRYQMIEAESV | -0.285 |
| HMADQIIEGILGKEGGYVNNPNDKGGPTRWGITQTTARAYGYSGDMKALPRDTAKAIYLSQYWT | -0.183 |
| HMGITPSIEMILEYFAFKESSETEANKFFNYYSSIGWLVGGKTKMKDWKASARNWIMNQNKFQ | -3.97 |
| HMLTANPEEVVNRLTSAGEVGVRPLLDVDDPINAISTLLAIREDVYKQFAQFDTVGKSPSEIAHEIDDFL | 0.00575 |
| HMPDKIDSAAQGILDKLIRNDGFMAVTDKSPPEAIYKLFGVSKKVFKQAIGSLYKNRLITIEDAGLRIIPQ | -0.0609 |
| HMSQIAENNQKYVGTIQKVLVEGTSKNNDDMLTGRTDSNKVVIFEGDKKLIGNMVELKIVSEHMWYLKGEL | -0.0348 |
| HMLTPSRVLPYLFEDSFFIDTLSLEKDQVVGFLEYIDERLPPQDLMNKSKEFELIDYLINESEAYLSQ | 0.0334 |
| HMNYKNAIGQVGSVYVPIPPNREGLGQIEVKVQSRVSTVRAVSDHSERLENRVAVRVIELVDDRTLLVEKL | -0.839 |
| HMQINLKQSSDEELVKIITVQVHHYEPHTVKAAEAEIERRGIDKMRMAHLVKKVAQENTAVQEIQD | 0.18 |
| HMTMLLEYNVSRSSKWMNKTIMDAEIPDDILIVMIKRNGQVIVPKGSTEILENDILVLSGNNLNEVALG | -2.33 |
| HMAPLVTLEADGNGAVKLSNLAGHSIREVAGALGGAGLSLIPVGSGTSWKQNPAPGTVLHSGDTVTVYF | 0.126 |
| HMAPLQDENGDLTFSYNGKTYTVNVNSEEDRNSFAEDFNKENGKKFSWFKERAGLQHYVFYDTEM | -0.19 |
| HMESRRVTLLLPYDKAGIADTLRREAAVLSLEYGEDGVTVEAVVKPELWGLVREYVQNDNPK | 0.166 |
| HMGADSFTGYTPIHKIDNPSDGINDGASYVVYFQKDGTDPTEFYKAVNANASTLAQLTSGTEYDLASSKKL | 0.0305 |
| HMNESEALIARIENLPPIEDLTEKHAEEVKALMTVYSKLKMSDRILVTNYGVLKKDFDALVKKGFLTNED | 0.0784 |
| HMSAPVFRITPAGVVVNGLKRSDILTLTRIDGAMNTLPHNAGEVLVSTEGLAKGVYVITAGGKSLKFLV | -1.36 |
| HMNDLDSLWDIWENLNERGIGDKSEEGQELRDAIREFIDTNELNVRVTRNKTNEDLLTDIEDALEVAKNS | -0.33 |
| HMRMDKHLWLSLLRLINEGSAEELQTKKDELLQSLERLRITRGPVRGDVLRVVRLIDEELVSRLHLDQR | -2.29 |
